Test results taken from publication PMC2805030 (2010).

Molecular target: T1, RXRα LBD 226-462 (Homo sapiens, UniProt P19793)
T1 chain: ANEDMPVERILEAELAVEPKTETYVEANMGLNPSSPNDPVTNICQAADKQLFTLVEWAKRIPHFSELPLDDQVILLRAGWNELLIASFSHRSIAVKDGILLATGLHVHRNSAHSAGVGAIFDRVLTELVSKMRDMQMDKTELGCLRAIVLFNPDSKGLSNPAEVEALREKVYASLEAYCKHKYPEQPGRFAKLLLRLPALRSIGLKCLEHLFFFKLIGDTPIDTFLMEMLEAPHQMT
Assay: sedimentation equilibrium analytical ultracentrifugation

Kd: 832 nM
B1: RXRα LBD 226-462 (protein)
chain: ANEDMPVERILEAELAVEPKTETYVEANMGLNPSSPNDPVTNICQAADKQLFTLVEWAKRIPHFSELPLDDQVILLRAGWNELLIASFSHRSIAVKDGILLATGLHVHRNSAHSAGVGAIFDRVLTELVSKMRDMQMDKTELGCLRAIVLFNPDSKGLSNPAEVEALREKVYASLEAYCKHKYPEQPGRFAKLLLRLPALRSIGLKCLEHLFFFKLIGDTPIDTFLMEMLEAPHQMT
modifications: fluorescein-labeled
